These results are taken from publication PMC8866119 (Nature, 2021).

This experiment addresses SARS-CoV-2 Omicron (B.1.1.529) RBD (SARS-CoV-2 Omicron B.1.1.529 (BA.1), strain).

Where a chain is given by its changes, count along the chain named.

B1: BD-932 (antibody, V domains shown)
VH: EVQLVESGGALVHPGRSLRLSCTASGFTFEDYAMHWVRQAPGKGLEWVSGVSWNSGTIGYADSVKGRFIISRDNAKNSLYLQMLSLRVEDTAFYYCAKHGGLLDTSLDQYYFDYWGQGTLVTVSS
VL: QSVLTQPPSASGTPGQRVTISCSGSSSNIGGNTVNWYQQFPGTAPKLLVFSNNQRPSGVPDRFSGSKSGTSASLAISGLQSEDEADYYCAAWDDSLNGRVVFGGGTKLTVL
Consider B1, for which the binding result is on record as “binds”.

B2: BD55-3637 (antibody, V domains shown)
VH: QVQLVESGGGVVQPGRSLRLSCAASGFTFSTYGMHWVRQAPGKGLQWVAFISDGGNKKYFADSVKGRFTISRDNSKNTLYLQMSSLRTEDTAVYYCAKERYCAGGDCSNPFFDYWGQGTLVTVSS
VL: DIQVTQSPSSLSASVGDRVTITCRASQSISSSLNWYQHKPGNAPKLLIYAASSLQSGVPSRFSGSGSGTDFILTISSLQPEDFATYYCQQSHSFPRTFGQGTKVEFR
Regarding B2, the binding result is listed as “binds”.

B3: COVOX-222 (antibody, V domains shown)
VH: EVQLVESGGGLIQPGGSLRLSCAASGLTVSSNYMSWVRQAPGKGLEWVSVIYSGGSTFYADSVKGRFTISRDNSKNTLYLQMNSLGAEDTAVYYCARGEGSPGNWFDPWGQGTLVTVSS
VL: DVVMTQSPGTLSLSPGERATLSCRASQSVPSSYLAWYQQKPGQAPRLLIYGASTRATGIPDRFSGSGSGTDFTLTISRLEPEDFAVYYCQHYDTSPRFGGGTKVDIK
Turning to B3, the binding result was “binds”.

B4: BD55-5293 (antibody, V domains shown)
VH: EVQLVQSGAEVKKPGESLKISCKTSGYSFISNWIGWVRQMPGKGLEWMGIIYPGDSDTRYSPSFQGQVTISVDKSISTAYLQWTSLKASDTAMYFCTRRGDYGEFGGFDGDWGQGTLVTVTS
VL: DIQMTQSSSSLSASVGDRVTITCRASQSTGRYLNWYQQKAGKAPKLVIYAVSSLQSGVPSRFSGSGSGTEFTLTINSLQPEDFATYYCQQTYSIPFTFGPGTKVDLK
Turning to B4, the binding result is on record as “binds”.

B5: BG4-25 (antibody, V domains shown)
VH: EVQLVESGGGLIQPGGSLRLSCAASGITVVRNYMTWVRQAPGKGLEWVSVIYSGGTTYYADSVKGRFTISRDNSKNTMYLQMNSLRAEDTAIYYCARDLEVVGAMDVWGQGTTVTVSS
VL: EIVLTQSPGTLSLSPGERATLSCRASQSVPSSYLAWYQQKPGQAPRLLIYGASSRATGIPDRFSGSGSGTDFTLTISRLEPEDFAVYYCQQYGSPMYTFGQGTKLEIK
B5: the binding result is “binds”.

B6: BD-618 (antibody, V domains shown)
VH: EVQLVESGGGLVQPGGSLRLSCAVSGFIVSRNYMTWVRQAPGKGLEWVSLIYSGGSTFYTNSVKGRFTISRDNSKNTLYLQMDSLRAEDTAVYYCARGPYPRFDYWGQGTLVTVSS
VL: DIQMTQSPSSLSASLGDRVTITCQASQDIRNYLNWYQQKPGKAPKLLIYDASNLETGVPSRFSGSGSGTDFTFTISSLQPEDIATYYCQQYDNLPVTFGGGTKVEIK
B6: the binding result is given as “binds”.

B7: BD55-1962 (antibody, V domains shown)
VH: QVQLVQSGAEVKKPGSSVKVSCTASGDSFSSYAITWVRQAPGQGLEWMGRIIPILGIANYAQKFQGRVTLTADKSAGTAYMELSSLRSDDTAVYYCASGYDFHFDYWGQGTLVTVYS
VL: QSALTQPASVSGSPGQSITISCTGTSSDVGDYKYVSWYQQHAGKAPKLMIHDVSKRPSGVSSRFSGSKSGNTASLTISGLQAEDEADYYCSSYTSSSSWVFGGGTKLTVL
Take B7: the binding result is recorded as “binds”.

B8: BD-614 (antibody, V domains shown)
VH: QVQLVESGGGLVQPGGSLRLSCAASGLIVSSNYMSWVRQAPGEGLEWVSVIYSGGSTYYADSVKGRFTISRDTSKNTLYLQMNSLRAEDTAVYYCARARIYTYGPDYWGQGTLVTVSS
VL: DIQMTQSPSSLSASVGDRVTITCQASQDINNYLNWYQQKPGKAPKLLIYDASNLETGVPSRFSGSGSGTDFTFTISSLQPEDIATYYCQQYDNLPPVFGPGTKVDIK
As for B8, the binding result is given as “binds”.

B9: COV2-2072 (antibody, V domains shown)
VH: QMQLVQSGPEVKKPGTSVKVSCKTSGFTFTSSAIQWVRQARGQRLEWIGWIVVGSGNTNYAQKFQERVTITRDMSTSTAYMELSSLRSEDTAVYYCAAPHCNRTSCYDAFDLWGQGTMVTVSS
VL: not shown
Take B9: the binding result is “binds”.

B10: COV2-2381 (antibody, V domains shown)
VH: B9 VH with T24A, I34V, V52A, T69S, H100Y, N102S, Y107H, L112I, M118K
VL: EVVLTQSPGTLSLSPGERATLSCRASQSVSSSYLAWYQQKPGQAPRLLIYGASSRATGIPDRFSGSGSGTDFTLTISRLEPEDFAVYHCQHFGSSSQWTFGQGTKVEIK
Consider B10, for which the binding result is listed as “binds”.

B11: BD-566 (antibody, V domains shown)
VH: QVQLVESGGGVVQPGRSLRLSCAASGFTFRSYGMHWVRQAPGKGLEWVAVISKDGSNKYYADSVKGRFTISRDNSKNTLYLQWNSLRAEDTAVYYCARALVVPGAPRYYYYGMDVWGQGTTVTVSS
VL: AIQLTQSPSSLSASVGDRVTITCRASQGISSALAWYQQRPGKAPKLLIYDASTLESGVPSRFSGSGSGTDFTLTISSLQPEDFATYYCQQFNTYPWTFGQGTKVELK
As for B11, the binding result is reported as “binds”.

B12: BD55-5386 (antibody, V domains shown)
VH: QVQLLQSGAEVKKPGSSVTVSCKASGGTFTNSAINWVRQAPGQGLEWIGGIIPIIGPTSYAQKFQGRVTITADESSTTAYLDLRSLRSDDTAVYYCAKAHCGDCTPPRGYYFYYFGMDVWGQGTTVTVSS
VL: SYELTQPPSVSVSPGQTARITCSGDALPKQYSYWYQQRPGQAPVLLIYKDNERPSGIPERFSGSSSGTTVTLTISGVQAEDEADYYCQSADASSTYVVFGGGTKLTVL
Take B12: the binding result is reported as “binds”.

B13: BD55-1706 (antibody, V domains shown)
VH: QVQLQESGPGLLKPSETLSLTCTVSGGSINSYYWNWIRQSPRKGLEWIGYIFFSGSTNYNPSLKSRVTISLDRSKNQFSVHLRSVTAADTAVYYCARGDSKTGYDLELFDYWGHGTLVTVSS
VL: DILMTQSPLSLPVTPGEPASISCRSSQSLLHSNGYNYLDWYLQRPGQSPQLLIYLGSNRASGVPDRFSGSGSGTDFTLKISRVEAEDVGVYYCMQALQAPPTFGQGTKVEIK
Take B13: the binding result is “binds”.

B14: BD-744 (antibody, V domains shown)
VH: EVQLVESGGGLVQPGRSLRLSCAASGFTFDDYAMHWVRQAPGKGLEWVSGASWNSGTIGYADSVKGRFIIIRDNAKNSLYLQMNSLRSEDTASYYCAKDFSRDGDAFDIWGQGTMVTVSS
VL: SYVLPQPPSVSVAPGKTARITCGGNNIEHKSVHWYQQKPRQAPVVVMYYDSDRPSGIPERFSGSNSGNTATLIISRVEAGDEAEYYCQVWDRSSDQPVFGGGTKLTVL
Consider B14, for which the binding result is listed as “binds”.

B15: S2E12 (antibody, V domains shown)
VH: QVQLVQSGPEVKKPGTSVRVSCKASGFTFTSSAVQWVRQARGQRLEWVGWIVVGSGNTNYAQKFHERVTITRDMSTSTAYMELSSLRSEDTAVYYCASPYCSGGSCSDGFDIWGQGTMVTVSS
VL: DIVLTQTPGTLSLSPGERATLSCRASQSVSSSYLAWYQQKPGQAPRLLIYGASSRATGIPDRFSGSGSGTDFTLTISRLEPEDFAVYYCQQYVGLTGWTFGQGTKVEIK
Take B15: the binding result was “binds”.

B16: BD-812 (antibody, V domains shown)
VH: EVQLVQSGAEVKKPGESLKISCQFSEYKLISFWIAWVRQRPGKGLEWMGIIYPDDSDTKYSPSSQGQVTISADKSIRTAYLQWSSLMASDTAMYYCTSGSYYGTLDFWGQGTLVTVSS
VL: DIEITQSPSSLSASVGDRVTISCRASQDIRTYVAWYQQRPGKVPRLLIYAASTLQSGVPSRFSGRGSGTDFTLTISSLQPEDVATYYCQQYNSAPLTFGGGAKVEIK
With B16, the binding result was “binds”.

B17: BD55-387 (antibody, V domains shown)
VH: QITLKESGPTLVKPTQTLTLTCTFSGFSLSTSGVGVGWIRQPPGKALEWLALIYWDDDKRYSPALKSRLTITEDTSKNQVVLTMTNMDPVDTATYYCAHCAPAWNYFDYWGQGTLVAVSS
VL: QSVLTQPPSVSGAPGQRVTISCTGSSSNIGAGYDVHWYQQLPGTAPKLLIYRNSNRPSGVPGRFSGSKSGTSASLAITGLQAEDEADYFCQSYDSSLSGWVFGGGTKLTVL
As for B17, the binding result is “binds”.

B18: BD-836 (antibody, V domains shown)
VH: QVQLVQSGPEVKKPGTSVRVSCKASGFTFSTSAVQWVRQARGQRLEWIGWIAVGSGKTDYLQKFQERVTMTRDESTNTAYMQLSSLRSEDTAVYYCAAPHCSGGTCYDGFDIWGQGTLVTVSS
VL: EIVLTQSPGTLSLSPGERATLSCRASQSVRSGYFAWYQQRPGRAPRLLIYGASSRATAIPDRFSGSGSGTDFTLTINRLEPEDFAVYYCQQYGTSPWTFGQGTKVEIK
Consider B18, for which the binding result is reported as “binds”.

B19: BD55-3152 (antibody, V domains shown)
VH: QVQLVQSGAEVKKPGASVIVSCKASGYRFISHYIHWVRQAPGQGLEWMGKIDPSGRGTTYAQKLQGRVSVTRDTSTSSVYMALSGLRSDDTAVYYCARDRFPLSDPYVWGSPLGGLDVWGQGTTVIVSS
VL: SYDLTQPPSVSVSPGQTARITCSGDALPSQYVYWYQQRPGQAPVLVMYKDSERPPGIPERFSGSTSGTTATLTITGVQAEDEADYYCQSADASTTYHVFGGGTKVTVV
As for B19, the binding result is “binds”.

B20: BD-369 (antibody, V domains shown)
VH: EVQLVESGGGLVQPGGSLRLSCAASGITVSSNYMTWVRQAPGKGLEWVSLIYSGGSTYYADSVKGRFTISRDNSKNTLHLQMNSLRGEDTAVYYCARDLVAFGMDVWGQGTTVTVSS
VL: AIQLTQSPSSLSASVGDRVTITCRASQGISSYLAWYQQKPGKAPKLLIYAASTLQGGVPSRFSGSGSGTDFTLTISSLQSEDSATYYCQQLNSDTPTFGPGTKVEIK
For B20, the binding result was “binds”.

B21: BD-804 (antibody, V domains shown)
VH: EVQLVESGGGLVKPGGSLRLSCAASGFTFSNYDMNWVRQAPGKGLEWVSSISSSSTYTHYADSVKGRFTISRDNAKNSLYLQMNSLRAEDTAVYYCARDRAYRLGELSSLWGDDAFDIWGQGTMVTVSS
VL: AVWMTQSPSLLSASTGDRVTVSCRMSQDISSYLAWYQQKPGKAPELLIYAAFTLQSGVPSRFSGSGSGTEFTLTISSLQSEDFATYYCQQYYSFPHTFGQGTKLERR
Consider B21, for which the binding result was “binds”.

B22: LY-CoV1404 (antibody, V domains shown)
VH: QITLKESGPTLVKPTQTLTLTCTFSGFSLSISGVGVGWLRQPPGKALEWLALIYWDDDKRYSPSLKSRLTISKDTSKNQVVLKMTNIDPVDTATYYCAHHSISTIFDHWGQGTLVTVSS
VL: QSALTQPASVSGSPGQSITISCTATSSDVGDYNYVSWYQQHPGKAPKLMIFEVSDRPSGISNRFSGSKSGNTASLTISGLQAEDEADYYCSSYTTSSAVFGGGTKLTVL
On to B22, for which the binding result is “binds”.

B23: BD55-1104 (antibody, V domains shown)
VH: EVQLVQSGAEVKKPGESLKISCKGSGYSFTTYWTGWVRQVPGKGLEWMGLIYPRDSDARYTPSFEGHVTISADNSINTAYLHWSSLKASDTAIYYCVSAGDTGWRGHADYWGQGTLVTVSS
VL: DIQMTQSPSSLSASVGDRVTITCRASLDIRNYLVWFQQKPGTAPKSLIYEASTLQSGVPSRFSGSGSGTDFTLTISSLRPEDFATYYCQQYNTWPFTFGGGTKVEIK
Take B23: the binding result is listed as “binds”.
